Assay results published in IntAct's records for PubMed 29039417.

B1: BBSome complex member BBS4 (Homo sapiens), Q96RK4 (parent)
chain: MAEERVATRTQFPVSTESQKPRQKKAPEFPILEKQNWLIHLHYIRKDYEACKAVIKEQLQETQGLCEYAIYVQALIFRLEGNIQESLELFQTCAVLSPQSADNLKQVARSLFLLGKHKAAIEVYNEAAKLNQKDWEISHNLGVCYIYLKQFNKAQDQLHNALNLNRHDLTYIMLGKIHLLEGDLDKAIEVYKKAVEFSPENTELLTTLGLLYLQLGIYQKAFEHLGNALTYDPTNYKAILAAGSMMQTHGDFDVALTKYRVVACAVPESPPLWNNIGMCFFGKKKYVAAISCLKRANYLAPFDWKILYNLGLVHLTMQQYASAFHFLSAAINFQPKMGELYMLLAVALTNLEDIENAKRAYAEAVHLDKCNPLVNLNYAVLLYNQGEKKNALAQYQEMEKKVSLLKDNSSLEFDSEMVEMAQKLGAALQVGEALVWTKPVKDPKSKHQTTSTSKPASFQQPLGSNQALGQAMSSAAAYRTLPSGAGGTSQFTKPPSLPLEPEPAVESSPTETSEQIREK
partner: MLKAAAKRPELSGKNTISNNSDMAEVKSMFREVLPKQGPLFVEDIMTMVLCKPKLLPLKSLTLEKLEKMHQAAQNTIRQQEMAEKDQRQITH

Variants of: B1
Conditions: with bbip1_human BBIP1, A8MTZ0

Row | effect of a mutation on the interaction | Variant
1 | with no effect | Q490E
2 | with no effect | P509E
3 | with no effect | G487A
4 | with no effect | G487E
5 | with no effect | P498A
6 | with no effect | T510K
7 | with no effect | F491E
8 | with no effect | F491K
9 | with no effect | G484E
10 | with no effect | G484A
11 | with no effect | G469A
12 | with no effect | Y478E
13 | with no effect | A467K
14 | with no effect | A467E
15 | with no effect | A475E
16 | with no effect | A477E
17 | with no effect | S451A
18 | with no effect | S451K
19 | with no effect | K454A
20 | with no effect | P482A
21 | with no effect | P482E
22 | with no effect | T452A
23 | with no effect | T452E
24 | with no effect | T452K
25 | with no effect | L499K

Row | effect of a mutation on the interaction | Variant
26 | with no effect | T480K
27 | with no effect | T480A
28 | with no effect | T480E
29 | with no effect | S474A
30 | with no effect | S474E
31 | with no effect | S483E
32 | with no effect | S483A
33 | with no effect | Q460A
34 | with no effect | Q460E
35 | with no effect | A485K
36 | with no effect | A485E
37 | with no effect | T488E
38 | with no effect | S457K
39 | with no effect | S457E
40 | with no effect | S457A
41 | with no effect | S496E
42 | with no effect | S473K
43 | with no effect | L468K
44 | with no effect | L468E
45 | with no effect | S464K
46 | with no effect | Q448K
47 | with no effect | Q470A
48 | with no effect | Q470K
49 | with no effect | S508E
50 | with no effect | S508A

Row | effect of a mutation on the interaction | Variant
51 | with no effect | P501K
52 | with no effect | P501E
53 | with no effect | T512A
54 | with no effect | T512E
55 | with no effect | A504K
56 | with no effect | G463A
57 | with no effect | G463E
58 | with no effect | S489K
59 | with no effect | A456K
60 | with no effect | A456E
61 | with no effect | P455K
62 | with no effect | P461K
63 | with no effect | P461A
64 | with no effect | T449A
65 | with no effect | P495E
66 | with no effect | A471K
67 | with no effect | Q466E
68 | with no effect | Q466A
69 | with no effect | M472E
70 | with no effect | S507E
71 | with no effect | S513K
72 | with no effect | S513A
73 | with no effect | Q459E
74 | with no effect | T450A
75 | with no effect | T492A

The remaining lines, values behind:

Row | Variant | effect of a mutation on the interaction
76 | Q490A | with no effect
77 | Q490K | with no effect
78 | P509K | with no effect
79 | P509A | with no effect
80 | G487K | with no effect
81 | P498E | with no effect
82 | P498K | with no effect
83 | T510A | with no effect
84 | T510E | with no effect
85 | F491A | with no effect
86 | G484K | with no effect
87 | A476K | with no effect
88 | A476E | with no effect
89 | E514K | with no effect
90 | E514A | with no effect
91 | E506A | with no effect
92 | E506K | with no effect
93 | G469E | with no effect
94 | G469K | with no effect
95 | Y478A | with no effect
96 | Y478K | with no effect
97 | A475K | with no effect
98 | A477K | with no effect

Row | Variant | effect of a mutation on the interaction
99 | S451E | with no effect
100 | R479K | with no effect
101 | R479A | with no effect
102 | R479E | with no effect
103 | E500K | with no effect
104 | E500A | with no effect
105 | K454E | with no effect
106 | K493E | with no effect
107 | K493A | with no effect
108 | P482K | with no effect
109 | H447K | with no effect
110 | Q515A | with no effect
111 | F458K | with no effect
112 | F458E | with no effect
113 | F458A | with no effect
114 | N465E | with no effect
115 | N465A | with no effect
116 | N465K | with no effect
117 | L499E | with no effect
118 | L499A | with no effect
119 | S474K | with no effect
120 | S483K | with no effect
121 | G486E | with no effect

Row | Variant | effect of a mutation on the interaction
122 | G486K | with no effect
123 | G486A | with no effect
124 | Q460K | with no effect
125 | T488K | with no effect
126 | T488A | with no effect
127 | S496K | with no effect
128 | S496A | with no effect
129 | S473E | with no effect
130 | S473A | with no effect
131 | L468A | with no effect
132 | S464A | with no effect
133 | S464E | with no effect
134 | L481K | with no effect
135 | L481A | with no effect
136 | L481E | with no effect
137 | Q448E | with no effect
138 | Q448A | with no effect
139 | Q470E | with no effect
140 | L462E | with no effect
141 | L462K | with no effect
142 | L462A | with no effect
143 | S508K | with no effect
144 | S453K | with no effect

Row | Variant | effect of a mutation on the interaction
145 | S453E | with no effect
146 | S453A | with no effect
147 | P501A | with no effect
148 | T512K | with no effect
149 | A504E | with no effect
150 | G463K | with no effect
151 | S489E | with no effect
152 | S489A | with no effect
153 | L497K | with no effect
154 | L497E | with no effect
155 | L497A | with no effect
156 | P455E | with no effect
157 | P455A | with no effect
158 | P503E | with no effect
159 | P503A | with no effect
160 | P503K | with no effect
161 | P461E | with no effect
162 | T449E | with no effect
163 | T449K | with no effect
164 | E511K | with no effect
165 | E511A | with no effect
166 | P495A | with no effect
167 | P495K | with no effect

Row | Variant | effect of a mutation on the interaction
168 | E502A | with no effect
169 | E502K | with no effect
170 | P494E | with no effect
171 | P494A | with no effect
172 | P494K | with no effect
173 | A471E | with no effect
174 | Q466K | with no effect
175 | V505K | with no effect
176 | V505E | with no effect
177 | V505A | with no effect
178 | M472K | with no effect
179 | M472A | with no effect
180 | S507A | with no effect
181 | S507K | with no effect
182 | S513E | with no effect
183 | Q459K | with no effect
184 | Q459A | with no effect
185 | T450K | with no effect
186 | T450E | with no effect
187 | T492E | with no effect
188 | T492K | with no effect
